Data from patent US20020143164A1, “Ras activator nucleic acid molecules, polypeptides and methods of use” (priority 1999, published 2002).

Test system: Ras
Experiment: Ras activation assay in living cells, GRF4 and deletion mutants expressed in HEK-293T cells
Type: cell-based, human
Settings: HEK-293T cells treated with 8-Br-cAMP
Description: HEK-293T cells were transfected with vector alone, GRF4 (WT), GRF4 lacking its cNMP-BD (ΔcNMP-BD) or its CDC25 domain (ΔCDC25), and then treated (or not) with 8-Br-cAMP. Cell lysates were then incubated with GST-Raf1-RBD to precipitate active Ras, and immunobloited with anti Ras antibodies as above (upper panel). Lower panels are controls for total endogenous Ras and transfected GRF4 or its mutants.
Flag, HA or myc tags was added to the N-terminus of full length GRF4 using PCR, and subcloned into the mammalian expression vector pCMV5 (Invitrogen). Mutants GRF4 with deletion of the CDC25 domain (residue 711-1007, GRF4DCDC25 or DCDC25 for short), the cNMP-BD (residue 134-254, DcNMP-BD), the PLPF motif in the PDZ domain (residue 396-399, -PLPF), or bearing mutations in the PDZ-binding motif (SAV to AAA), were generated using PCR. The GST-GRF4-cNMP-BD (residue 101-303) and GST-Carboxy-terminus (residue 1348-1499) were PCR-generated and cloned into pGEX-2T ( Pharmacia). The latter construct was used to generate a fusion protein (GST-GRF4C terminus) which was used to immunize rabbits for the generation of polyclonal anti GRF4 antibodies.
HEK-293T cells were transfected as above, serum starved overnight and then subjected to various treatments, as described in the text. […] GTP in the lysates was determined using activation specific probes as described. Briefly, to determined the levels of active Ras (Ras-GTP) in cell, sepharose-bound GST fusion protein of the Ras-binding domain (RBD) of Raf-1 (GST-Raf1-RBD; Upstate Biotechnology Inc.) was used to precipitate Ras-GTP from cell lysates, and the amount of Ras-GTP determined by immunoblotting with anti Ras antibodies (Quality Biotech). Similarly, to determine the level of Rap1-GTP in cell lysates, sepharose-bound GST fusion proteins of the Rap1-binding domain of RaIGDS (GST-RaIGDS-RBD) were used to precipitate Rap1-GTP, which was then detected on a Western blot using anti-Rap1 antibodies (Transduction Lab).

B1: ACDC25: Mutant GRF4 with deletion of the CDC25 domain (residue 711-1007) (protein)
chain: MKPLAIPANHGVMGQQEKHSLPADFTKLHLTDSLHPQVTHVSSSHSGCSITSDSGSSSLSDIYQATESEAGDMDLSGLPETAVDSEDDDDEEDIERASDPLMSRDIVRDCLEKDPIDRTDDDIEQLLEFMHQLPAFANMTMSVRRELCAVMVFAVVERAGTIVLNDGEELDSWSVILNGSVEVTYPDGKAEILCMGNSFGVSPTMDKEYMKGVMRTKVDDCQFVCIAQQDYCRILNQVEKNMQKVEEEGEIVMVKEHRELDRTGTRKGHIVIKGTSERLTMHLVEEHSVVDPTFIEDFLLTYRTFLSSPMEVGKKLLEWFNDPSLRDKVTRVVLLWVNNHFNDFEGDPAMTRFLEEFENNLEREKMGGHLRLLNIACAAKAKRRLMTLTKPSREAPLPFILLGGSEKGFGIFVDSVDSGSKATEAGLKRGDQILEVNGQNFENIQLSKAMEILRNNTHLSITVKTNLFVFKELLTRLSEEKRNGAPHLPKIGDIKKASRYSIPDLAVDVEQVIGLEKVNKKSKANTVGGRNKLKKILDKTRISILPQKPYNDIGIGQSQDDSIVGLRQTKHIPTALPVSGTLSSSNPDLLQSHHRILDFSATPDLPDQVLRVFKADQQSRYIMISKDTTAKEVVIQAIREFAVTATPDQYSLCEVSVTPEGVIKQRRLPDQLSKLADRIQLSGRYYLKNNMETETLCSDEDAQELLRESQPKNPGDKKPVKSETSPVAPRAGSQQKAQSLPQPQQQPPPAHKINQGLQVPAVSLYPSRKKVPVKDLPPFGINSPQALKKILSLSEEGSLERHKKQAEDTISNASSQLSSPPTSPQSSPRKGYTLAPSGTVDNFSDSGHSEISSRSSIVSNSSFDSVPVSLHDERRQRHSVSIVETNLGMGRMERRTMIEPDQYSLGSYAPMSEGRGLYATATVISSPSTEELSQDQGDRASLDAADSGRGSWTSCSSGSHDNIQTIQHQRSWETLPFGHTHFDYSGDPAGLWASSSHMDQIMFSDHSTKYNRQNQSRESLEQAQSRASWASSTGYWGEDSEGDTGTIKRRGGKDVSIEAESSSLTSVTTEETKPVPMPAHIAVASSTTKGLIARKEGRYREPPPTPPGYIGIPITDFPEGHSHPARKPPDYNVALQRSRMVARSSDTAGPSSVQQPHGHPTSSRPVNKPQWHKPNESDPRLAPYQSQGFSTEEDEDEQVSAV
  8-Br-cAMP-mediated activation of Ras via the construct, compared with wt-GRF4: almost abolished
